From patent US20210301005A1 (Genentech, published 2021) come the findings set out here.

What all share (test): cell-based or functional assay
Test [1] addresses T1, human TGFβ1, mature receptor-binding domain (human, UniProt P01137 279-390).
In test [2] the target is T2, human TGFβ2, mature receptor-binding domain (human, UniProt P09858 303-414 (pig entry), The mature TGFβ2 is a disulfide-linked homodimer of this 112-residue chain. The 4A11 epitope spans both monomers (p-1207).).
T2 sequence: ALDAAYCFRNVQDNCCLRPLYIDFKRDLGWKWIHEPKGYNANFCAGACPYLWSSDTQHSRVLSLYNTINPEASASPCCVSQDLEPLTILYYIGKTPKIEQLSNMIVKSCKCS

Test [3] addresses T3, human TGFβ3, mature dimeric form (human, UniProt P10600 301-412).
T3 sequence: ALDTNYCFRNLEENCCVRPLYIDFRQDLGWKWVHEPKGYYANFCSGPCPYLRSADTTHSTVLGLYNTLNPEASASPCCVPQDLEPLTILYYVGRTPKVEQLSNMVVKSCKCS

For test [4], the target named is T1, human TGFβ1, mature receptor-binding …. The source holds these as a separate data set.
In test [5] the target is T2, human TGFβ2, mature receptor-binding …. This is another data set of the same source.
The target in test [6] is T3, human TGFβ3, mature dimeric form. The source holds these as a separate data set.
Test [7] deals with T2, human TGFβ2, mature receptor-binding …. This is another data set of the same source.
The target in test [8] is T4, mouse TGFβ2, mature peptide (mouse, UniProt P27090 303-414).
T4 sequence (looked up): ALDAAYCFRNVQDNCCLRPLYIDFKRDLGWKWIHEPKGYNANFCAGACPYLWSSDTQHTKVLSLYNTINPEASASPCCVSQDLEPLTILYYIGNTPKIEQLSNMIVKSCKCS

Where two headings read alike, the source gives them in different places.

T1 sequence (P01137 279-390 limits assumed): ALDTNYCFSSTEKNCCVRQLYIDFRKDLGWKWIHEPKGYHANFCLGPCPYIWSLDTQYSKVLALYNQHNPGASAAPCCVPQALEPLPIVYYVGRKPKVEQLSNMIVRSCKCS

B1: 4A11 (antibody, V domains shown)
VH: QSLEESGGRLVTPGTPLTLTCTVSGFSLSSYTVNWVRQAPGKGLEWIGYISYGGSAYYASWANGRFTISKTSATVDLKITSPTTEDTATYFCARHMQVGGAPTGSMAAFDPWGPGTLVTVSS
VL: AAVLTQTPSPVSAAVGGTVSISCQSSQSVYNNNYLSWFQQKPGQPPKLLIYGASTLTSGVPSRFKGSGSGTQFTLTISDVQCDDAATYYCAGGYSGSSDKYAFGGGTEVVVKG
notes: anti-TGFβ2/3, recombinant rabbit monoclonal; some paragraphs print the H/L pair as 32/33; also called Rb1.4A11; Rbt 4A11
Consider B1, for which the “HEKBlue TGFβ blocking IC50” value in test [1] was more than 200 nM; in test [2], 0.09 nM; in test [3], 0.06 nM; in test [4], more than 200 nM; in test [5], 0.09 nM; in test [6], 0.06 nM. For the same molecule, the “IC50 (read off the curve)” value is approximately 0.06 nM in test [7] and approximately 0.07 nM in test [8].
